In US20120316071A1:
Where “and” joins values, the source holds several entries; their conditions need not be identical. Equal entries are not always repeated. Values belong to the substance of their own block, whether it stands above or below them.

What was measured:
[1] = target: rHuman P-Cadherin/Fc Chimera, CF (R&D Systems Cat#861-PC) (human) (UniProt P22223); assay: MSD ECL multispot assay, antigen spotted on plate, Fab in solution; blank spot of this row 348
[2] = target: rHuman P-Cadherin/Fc Chimera, CF (R&D Systems Cat#861-PC) (human) (UniProt P22223); assay: MSD ECL multispot assay, antigen spotted on plate, Fab in solution; blank spot of this row 504
[3] = target: Recombinant Human DLL4 (human) (UniProt Q9NR61); assay: ECL (MSD) multispot binding assay, DLL4 signal over blank spot
[4] = target: Recombinant Human DLL4 (human) (UniProt Q9NR61); assay: ECL (MSD) multispot binding assay, DLL4 spotted on plate, Fab in solution
[5] = target: Recombinant Human DLL4 (delta-like protein 4) (human) (UniProt Q9NR61); assay: ECL multispot (MSD) binding assay; antigen spotted on plate, Fab in solution
[6] = target: rHuman P-Cadherin/Fc Chimera, CF (R&D Systems Cat#861-PC) (human) (UniProt P22223); assay: MSD multispot ECL, antigen spotted, Fab […]; blank spot 234
[7] = target: rHuman P-Cadherin/Fc Chimera, CF (R&D Systems Cat#861-PC) (human) (UniProt P22223); assay: MSD multispot ECL, antigen spotted, Fab 0.1 nM; blank spot 201
[8] = target: rHuman P-Cadherin/Fc Chimera, CF (R&D Systems Cat#861-PC) (human) (UniProt P22223); assay: MSD multispot ECL, antigen spotted, Fab 0.6 nM; blank spot 226
[9] = target: rHuman P-Cadherin/Fc Chimera, CF (R&D Systems Cat#861-PC) (human) (UniProt P22223); assay: MSD multispot ECL, antigen spotted, Fab 9.3 nM; blank spot 287
[10] = target: rHuman P-Cadherin/Fc Chimera, CF (R&D Systems Cat#861-PC) (human) (UniProt P22223); assay: MSD multispot ECL, antigen spotted, Fab 2383 nM; blank spot 344
[11] = target: rHuman P-Cadherin/Fc Chimera, CF (R&D Systems Cat#861-PC) (human) (UniProt P22223); assay: MSD multispot ECL, antigen spotted, Fab 37.2 nM; blank spot 199
[12] = target: rHuman P-Cadherin/Fc Chimera, CF (R&D Systems Cat#861-PC) (human) (UniProt P22223); assay: MSD multispot ECL, antigen spotted, Fab 148.9 nM; blank spot 218
[13] = target: rHuman P-Cadherin/Fc Chimera, CF (R&D Systems Cat#861-PC) (human) (UniProt P22223); assay: MSD multispot ECL, antigen spotted, Fab 595.8 nM; blank spot 285
[14] = target: rHuman CD44/Fc Chimera, CF (R&D Systems Cat#3660-CD) (human) (UniProt P16070); assay: MSD multispot ECL, antigen spotted on plate, Fab at 6 nM (blank spot 191)
[15] = target: rHuman EGF R/Fc Chimera, CF (R&D Systems Cat#344-ER) (human) (UniProt P00533); assay: as above
[16] = target: rHuman ErbB2/Fc Chimera, CF (R&D Systems Cat#1129-ER) (human) (UniProt P04626); assay: as above
[17] = target: rHuman Erythropoietin R/Fc Chimera, CF (R&D Systems Cat#963-ER) (human) (UniProt P19235); assay: as above
Sequence of rHuman Erythropoietin R/Fc Chimera, CF (R&D Systems Cat#963-ER) (human) (P19235 25-250, change not shown): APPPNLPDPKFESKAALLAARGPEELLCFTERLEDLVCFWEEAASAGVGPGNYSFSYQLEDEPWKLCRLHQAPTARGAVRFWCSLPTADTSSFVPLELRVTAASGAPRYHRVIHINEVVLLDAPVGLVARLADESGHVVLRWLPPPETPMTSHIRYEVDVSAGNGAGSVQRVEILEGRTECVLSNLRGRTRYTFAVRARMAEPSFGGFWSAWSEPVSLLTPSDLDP

[18] = target: rHuman HGF R/c-MET/Fc Chimera, CF (R&D Systems Cat#358-MT/CF) (human) (UniProt P08581); assay: as above
Sequence of rHuman HGF R/c-MET/Fc Chimera, CF (R&D Systems Cat#358-MT/CF) (human) (P08581 25-932, change not shown): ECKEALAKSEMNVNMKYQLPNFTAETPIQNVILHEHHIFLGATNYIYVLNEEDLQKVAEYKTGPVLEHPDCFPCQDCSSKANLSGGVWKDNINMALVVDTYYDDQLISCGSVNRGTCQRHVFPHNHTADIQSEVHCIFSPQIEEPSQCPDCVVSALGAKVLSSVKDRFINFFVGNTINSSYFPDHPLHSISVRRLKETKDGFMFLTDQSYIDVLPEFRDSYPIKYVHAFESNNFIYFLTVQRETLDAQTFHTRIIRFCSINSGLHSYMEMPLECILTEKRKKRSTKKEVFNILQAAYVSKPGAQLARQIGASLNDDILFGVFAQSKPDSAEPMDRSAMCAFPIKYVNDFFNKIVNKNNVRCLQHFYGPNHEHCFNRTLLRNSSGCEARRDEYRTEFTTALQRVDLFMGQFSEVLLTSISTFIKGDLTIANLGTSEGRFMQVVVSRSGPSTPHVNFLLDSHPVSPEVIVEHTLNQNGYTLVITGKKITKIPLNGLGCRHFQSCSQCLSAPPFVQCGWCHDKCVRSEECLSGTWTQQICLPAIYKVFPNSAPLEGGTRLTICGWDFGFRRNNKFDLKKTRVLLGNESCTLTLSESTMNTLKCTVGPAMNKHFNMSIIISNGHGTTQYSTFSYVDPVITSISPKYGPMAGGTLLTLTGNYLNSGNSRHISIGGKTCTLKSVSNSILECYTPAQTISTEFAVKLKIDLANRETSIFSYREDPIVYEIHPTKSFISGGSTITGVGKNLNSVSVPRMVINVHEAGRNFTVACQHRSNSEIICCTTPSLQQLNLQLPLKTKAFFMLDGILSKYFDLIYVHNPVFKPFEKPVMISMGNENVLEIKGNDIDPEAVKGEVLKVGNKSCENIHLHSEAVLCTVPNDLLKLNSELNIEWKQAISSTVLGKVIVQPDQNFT

[19] = target: rHuman IGF-1 sR, CF (R&D Systems Cat#391-GR) (human) (UniProt P08069); assay: as above
[20] = target: rHuman Notch-1/Fc Chimera, CF (R&D Systems Cat#3647-TK) (human) (UniProt P46531); assay: as above
[21] = target: rHuman P-Cadherin/Fc Chimera, CF (R&D Systems Cat#861-PC) (human) (UniProt P22223); assay: as above
[22] = target: rHuman CD44/Fc Chimera, CF (R&D Systems Cat#3660-CD) (human) (UniProt P16070); assay: MSD multispot ECL, antigen spotted on plate, Fab at 17 nM (blank spot 143)
[23] = target: rHuman EGF R/Fc Chimera, CF (R&D Systems Cat#344-ER) (human) (UniProt P00533); assay: as above
[24] = target: rHuman ErbB2/Fc Chimera, CF (R&D Systems Cat#1129-ER) (human) (UniProt P04626); assay: as above
[25] = target: rHuman Erythropoietin R/Fc Chimera, CF (R&D Systems Cat#963-ER) (human) (UniProt P19235); assay: as above
[26] = target: rHuman HGF R/c-MET/Fc Chimera, CF (R&D Systems Cat#358-MT/CF) (human) (UniProt P08581); assay: as above
[27] = target: rHuman IGF-1 sR, CF (R&D Systems Cat#391-GR) (human) (UniProt P08069); assay: as above
[28] = target: rHuman Notch-1/Fc Chimera, CF (R&D Systems Cat#3647-TK) (human) (UniProt P46531); assay: as above
[29] = target: rHuman P-Cadherin/Fc Chimera, CF (R&D Systems Cat#861-PC) (human) (UniProt P22223); assay: as above
[30] = target: rHuman CD44/Fc Chimera, CF (R&D Systems Cat#3660-CD) (human) (UniProt P16070); assay: MSD multispot ECL, antigen spotted on plate, Fab at 51 nM (blank spot 335)
[31] = target: rHuman EGF R/Fc Chimera, CF (R&D Systems Cat#344-ER) (human) (UniProt P00533); assay: as above
[32] = target: rHuman ErbB2/Fc Chimera, CF (R&D Systems Cat#1129-ER) (human) (UniProt P04626); assay: as above
[33] = target: rHuman Erythropoietin R/Fc Chimera, CF (R&D Systems Cat#963-ER) (human) (UniProt P19235); assay: as above
[34] = target: rHuman HGF R/c-MET/Fc Chimera, CF (R&D Systems Cat#358-MT/CF) (human) (UniProt P08581); assay: as above
[35] = target: rHuman IGF-1 sR, CF (R&D Systems Cat#391-GR) (human) (UniProt P08069); assay: as above
[36] = target: rHuman Notch-1/Fc Chimera, CF (R&D Systems Cat#3647-TK) (human) (UniProt P46531); assay: as above
[37] = target: rHuman P-Cadherin/Fc Chimera, CF (R&D Systems Cat#861-PC) (human) (UniProt P22223); assay: as above
[38] = target: rHuman CD44/Fc Chimera, CF (R&D Systems Cat#3660-CD) (human) (UniProt P16070); assay: MSD multispot ECL, antigen spotted on plate, Fab at 154 nM (blank spot 447)
[39] = target: rHuman EGF R/Fc Chimera, CF (R&D Systems Cat#344-ER) (human) (UniProt P00533); assay: as above
[40] = target: rHuman ErbB2/Fc Chimera, CF (R&D Systems Cat#1129-ER) (human) (UniProt P04626); assay: as above
[41] = target: rHuman Erythropoietin R/Fc Chimera, CF (R&D Systems Cat#963-ER) (human) (UniProt P19235); assay: as above
[42] = target: rHuman HGF R/c-MET/Fc Chimera, CF (R&D Systems Cat#358-MT/CF) (human) (UniProt P08581); assay: as above
[43] = target: rHuman IGF-1 sR, CF (R&D Systems Cat#391-GR) (human) (UniProt P08069); assay: as above
[44] = target: rHuman Notch-1/Fc Chimera, CF (R&D Systems Cat#3647-TK) (human) (UniProt P46531); assay: as above
[45] = target: rHuman P-Cadherin/Fc Chimera, CF (R&D Systems Cat#861-PC) (human) (UniProt P22223); assay: as above

ECL signal [1]: 786
ECL signal [2]: 930
Substance: Fab VH1-46_IGHD6-6*01_IGHJ1*01 S102A/S103P/S104F/H111F (APFF) & L6_IGKJ1*01 S92C

Signal/Blank [3]: 1.7
ECL signal [4]: 418
ECL signal [5]: 418 and 587
Substance: Fab VH1-46_IGHD6-6*01_IGHJ1*01 S102A/S103P/S104F/H111F (APFF) & L6_IGKJ1*01 S92R

ECL signal [6]: 401 ECL signal
ECL signal [7]: 235 ECL signal
ECL signal [8]: 321 ECL signal
ECL signal [9]: 452 ECL signal
ECL signal [10]: 728 ECL signal
ECL signal [11]: 649 ECL signal
ECL signal [12]: 687 ECL signal
ECL signal [13]: 617 ECL signal
Substance: Fab VH1-46_IGHD6-6*01_IGHJ1*01 & L6_IGKJ1*01

ECL signal [14]: 547
ECL signal [15]: 742
ECL signal [16]: 873
ECL signal [17]: 548
ECL signal [18]: 831
ECL signal [19]: 854
ECL signal [20]: 464
ECL signal [21]: 358
ECL signal [22]: 518
ECL signal [23]: 805
ECL signal [24]: 1030
ECL signal [25]: 620
ECL signal [26]: 914
ECL signal [27]: 872
ECL signal [28]: 558
ECL signal [29]: 542
ECL signal [30]: 651
ECL signal [31]: 816
ECL signal [32]: 1250
ECL signal [33]: 750
ECL signal [34]: 1040
ECL signal [35]: 1050
ECL signal [36]: 685
ECL signal [37]: 854
ECL signal [38]: 960
ECL signal [39]: 1400
ECL signal [40]: 1590
ECL signal [41]: 1200
ECL signal [42]: 1520
ECL signal [43]: 1400
ECL signal [44]: 929
ECL signal [45]: 1730
Substance: Fab VH5-51_IGHD5-18*01>3_IGHJ4*01 & V3-4_IGLJ1*01
